Experimental data taken from patent publication US11130793B2, “GLP-1/GLP-2 dual agonists” (Zealand Pharma A/S, priority 2016, dated 2021).
Square brackets hold non-standard residues; d marks the D form. Aib = CC(C)(N)C(=O)O

T1: human GLP-2 receptor (hGLP2-R) (human, UniProt O95838)
T1 sequence: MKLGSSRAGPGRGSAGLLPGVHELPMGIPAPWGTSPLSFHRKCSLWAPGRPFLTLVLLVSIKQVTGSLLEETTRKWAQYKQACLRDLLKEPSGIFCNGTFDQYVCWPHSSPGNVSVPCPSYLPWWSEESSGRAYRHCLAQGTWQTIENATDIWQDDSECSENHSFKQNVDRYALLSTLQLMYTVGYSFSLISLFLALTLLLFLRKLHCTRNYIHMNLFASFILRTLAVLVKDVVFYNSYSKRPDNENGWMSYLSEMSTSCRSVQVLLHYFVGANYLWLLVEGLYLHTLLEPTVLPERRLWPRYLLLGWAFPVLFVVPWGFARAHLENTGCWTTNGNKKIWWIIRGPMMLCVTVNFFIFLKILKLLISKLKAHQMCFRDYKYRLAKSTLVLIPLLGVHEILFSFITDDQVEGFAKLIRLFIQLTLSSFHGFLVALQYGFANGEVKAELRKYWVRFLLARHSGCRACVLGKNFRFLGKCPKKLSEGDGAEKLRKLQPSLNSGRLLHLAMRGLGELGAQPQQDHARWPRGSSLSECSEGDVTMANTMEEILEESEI

B1: Compound 13 (peptide)
peptide: H-H[Aib]EGTFTSELATILDEQAARDFIAWLQAHKITD-OH
SMILES: CC[C@H](C)[C@H](NC(=O)[C@H](Cc1ccccc1)NC(=O)[C@H](CC(=O)O)NC(=O)[C@H](CCCNC(=N)N)NC(=O)[C@H](C)NC(=O)[C@H](C)NC(=O)[C@H](CCC(N)=O)NC(=O)[C@H](CCC(=O)O)NC(=O)[C@H](CC(=O)O)NC(=O)[C@H](CC(C)C)NC(=O)[C@@H](NC(=O)[C@@H](NC(=O)[C@H](C)NC(=O)[C@H](CC(C)C)NC(=O)[C@H](CCC(=O)O)NC(=O)[C@H](CO)NC(=O)[C@@H](NC(=O)[C@H](Cc1ccccc1)NC(=O)[C@@H](NC(=O)CNC(=O)[C@H](CCC(=O)O)NC(=O)C(C)(C)NC(=O)[C@@H](N)Cc1c[nH]cn1)[C@@H](C)O)[C@@H](C)O)[C@@H](C)O)[C@@H](C)CC)C(=O)N[C@@H](C)C(=O)N[C@@H](Cc1c[nH]c2ccccc12)C(=O)N[C@@H](CC(C)C)C(=O)N[C@@H](CCC(N)=O)C(=O)N[C@@H](C)C(=O)N[C@@H](Cc1c[nH]cn1)C(=O)N[C@@H](CCCCN)C(=O)N[C@H](C(=O)N[C@H](C(=O)N[C@@H](CC(=O)O)C(=O)O)[C@@H](C)O)[C@@H](C)CC
B2: Compound 16 (peptide)
peptide: H-H[Aib]EGTFTSELATILDEQAARDFIAWLIKHKITD-OH
SMILES: CC[C@H](C)[C@H](NC(=O)[C@H](Cc1ccccc1)NC(=O)[C@H](CC(=O)O)NC(=O)[C@H](CCCNC(=N)N)NC(=O)[C@H](C)NC(=O)[C@H](C)NC(=O)[C@H](CCC(N)=O)NC(=O)[C@H](CCC(=O)O)NC(=O)[C@H](CC(=O)O)NC(=O)[C@H](CC(C)C)NC(=O)[C@@H](NC(=O)[C@@H](NC(=O)[C@H](C)NC(=O)[C@H](CC(C)C)NC(=O)[C@H](CCC(=O)O)NC(=O)[C@H](CO)NC(=O)[C@@H](NC(=O)[C@H](Cc1ccccc1)NC(=O)[C@@H](NC(=O)CNC(=O)[C@H](CCC(=O)O)NC(=O)C(C)(C)NC(=O)[C@@H](N)Cc1c[nH]cn1)[C@@H](C)O)[C@@H](C)O)[C@@H](C)O)[C@@H](C)CC)C(=O)N[C@@H](C)C(=O)N[C@@H](Cc1c[nH]c2ccccc12)C(=O)N[C@@H](CC(C)C)C(=O)N[C@H](C(=O)N[C@@H](CCCCN)C(=O)N[C@@H](Cc1c[nH]cn1)C(=O)N[C@@H](CCCCN)C(=O)N[C@H](C(=O)N[C@H](C(=O)N[C@@H](CC(=O)O)C(=O)O)[C@@H](C)O)[C@@H](C)CC)[C@@H](C)CC
B3: Compound 15 (peptide)
peptide: H-H[Aib]EGTFTSELATILDEQAARDFIAWLIQHKITD-OH
SMILES: CC[C@H](C)[C@H](NC(=O)[C@H](Cc1ccccc1)NC(=O)[C@H](CC(=O)O)NC(=O)[C@H](CCCNC(=N)N)NC(=O)[C@H](C)NC(=O)[C@H](C)NC(=O)[C@H](CCC(N)=O)NC(=O)[C@H](CCC(=O)O)NC(=O)[C@H](CC(=O)O)NC(=O)[C@H](CC(C)C)NC(=O)[C@@H](NC(=O)[C@@H](NC(=O)[C@H](C)NC(=O)[C@H](CC(C)C)NC(=O)[C@H](CCC(=O)O)NC(=O)[C@H](CO)NC(=O)[C@@H](NC(=O)[C@H](Cc1ccccc1)NC(=O)[C@@H](NC(=O)CNC(=O)[C@H](CCC(=O)O)NC(=O)C(C)(C)NC(=O)[C@@H](N)Cc1c[nH]cn1)[C@@H](C)O)[C@@H](C)O)[C@@H](C)O)[C@@H](C)CC)C(=O)N[C@@H](C)C(=O)N[C@@H](Cc1c[nH]c2ccccc12)C(=O)N[C@@H](CC(C)C)C(=O)N[C@H](C(=O)N[C@@H](CCC(N)=O)C(=O)N[C@@H](Cc1c[nH]cn1)C(=O)N[C@@H](CCCCN)C(=O)N[C@H](C(=O)N[C@H](C(=O)N[C@@H](CC(=O)O)C(=O)O)[C@@H](C)O)[C@@H](C)CC)[C@@H](C)CC
B4: Compound 12 (peptide)
peptide: H-H[Aib]EGTFTSELATILDEQAARDFIAWLHAHKITD-OH
SMILES: CC[C@H](C)[C@H](NC(=O)[C@H](Cc1ccccc1)NC(=O)[C@H](CC(=O)O)NC(=O)[C@H](CCCNC(=N)N)NC(=O)[C@H](C)NC(=O)[C@H](C)NC(=O)[C@H](CCC(N)=O)NC(=O)[C@H](CCC(=O)O)NC(=O)[C@H](CC(=O)O)NC(=O)[C@H](CC(C)C)NC(=O)[C@@H](NC(=O)[C@@H](NC(=O)[C@H](C)NC(=O)[C@H](CC(C)C)NC(=O)[C@H](CCC(=O)O)NC(=O)[C@H](CO)NC(=O)[C@@H](NC(=O)[C@H](Cc1ccccc1)NC(=O)[C@@H](NC(=O)CNC(=O)[C@H](CCC(=O)O)NC(=O)C(C)(C)NC(=O)[C@@H](N)Cc1c[nH]cn1)[C@@H](C)O)[C@@H](C)O)[C@@H](C)O)[C@@H](C)CC)C(=O)N[C@@H](C)C(=O)N[C@@H](Cc1c[nH]c2ccccc12)C(=O)N[C@@H](CC(C)C)C(=O)N[C@@H](Cc1c[nH]cn1)C(=O)N[C@@H](C)C(=O)N[C@@H](Cc1c[nH]cn1)C(=O)N[C@@H](CCCCN)C(=O)N[C@H](C(=O)N[C@H](C(=O)N[C@@H](CC(=O)O)C(=O)O)[C@@H](C)O)[C@@H](C)CC
B5: Compound 11 (peptide)
peptide: H-H[Aib]EGTFTSELATILDGKAARDFIAWLIAHKITD-OH
SMILES: CC[C@H](C)[C@H](NC(=O)[C@H](CC(C)C)NC(=O)[C@H](Cc1c[nH]c2ccccc12)NC(=O)[C@H](C)NC(=O)[C@@H](NC(=O)[C@H](Cc1ccccc1)NC(=O)[C@H](CC(=O)O)NC(=O)[C@H](CCCNC(=N)N)NC(=O)[C@H](C)NC(=O)[C@H](C)NC(=O)[C@H](CCCCN)NC(=O)CNC(=O)[C@H](CC(=O)O)NC(=O)[C@H](CC(C)C)NC(=O)[C@@H](NC(=O)[C@@H](NC(=O)[C@H](C)NC(=O)[C@H](CC(C)C)NC(=O)[C@H](CCC(=O)O)NC(=O)[C@H](CO)NC(=O)[C@@H](NC(=O)[C@H](Cc1ccccc1)NC(=O)[C@@H](NC(=O)CNC(=O)[C@H](CCC(=O)O)NC(=O)C(C)(C)NC(=O)[C@@H](N)Cc1c[nH]cn1)[C@@H](C)O)[C@@H](C)O)[C@@H](C)O)[C@@H](C)CC)[C@@H](C)CC)C(=O)N[C@@H](C)C(=O)N[C@@H](Cc1c[nH]cn1)C(=O)N[C@@H](CCCCN)C(=O)N[C@H](C(=O)N[C@H](C(=O)N[C@@H](CC(=O)O)C(=O)O)[C@@H](C)O)[C@@H](C)CC
B6: Compound 10 (peptide)
peptide: H-H[Aib]EGTFTSELSTILDEQAARDFIAWLIAHKITD-OH
SMILES: CC[C@H](C)[C@H](NC(=O)[C@H](CC(C)C)NC(=O)[C@H](Cc1c[nH]c2ccccc12)NC(=O)[C@H](C)NC(=O)[C@@H](NC(=O)[C@H](Cc1ccccc1)NC(=O)[C@H](CC(=O)O)NC(=O)[C@H](CCCNC(=N)N)NC(=O)[C@H](C)NC(=O)[C@H](C)NC(=O)[C@H](CCC(N)=O)NC(=O)[C@H](CCC(=O)O)NC(=O)[C@H](CC(=O)O)NC(=O)[C@H](CC(C)C)NC(=O)[C@@H](NC(=O)[C@@H](NC(=O)[C@H](CO)NC(=O)[C@H](CC(C)C)NC(=O)[C@H](CCC(=O)O)NC(=O)[C@H](CO)NC(=O)[C@@H](NC(=O)[C@H](Cc1ccccc1)NC(=O)[C@@H](NC(=O)CNC(=O)[C@H](CCC(=O)O)NC(=O)C(C)(C)NC(=O)[C@@H](N)Cc1c[nH]cn1)[C@@H](C)O)[C@@H](C)O)[C@@H](C)O)[C@@H](C)CC)[C@@H](C)CC)C(=O)N[C@@H](C)C(=O)N[C@@H](Cc1c[nH]cn1)C(=O)N[C@@H](CCCCN)C(=O)N[C@H](C(=O)N[C@H](C(=O)N[C@@H](CC(=O)O)C(=O)O)[C@@H](C)O)[C@@H](C)CC
B7: Compound 14 (peptide)
peptide: H-H[Aib]EGTFTSELATILDEQAARDFIAWLYAHKITD-OH
SMILES: CC[C@H](C)[C@H](NC(=O)[C@H](Cc1ccccc1)NC(=O)[C@H](CC(=O)O)NC(=O)[C@H](CCCNC(=N)N)NC(=O)[C@H](C)NC(=O)[C@H](C)NC(=O)[C@H](CCC(N)=O)NC(=O)[C@H](CCC(=O)O)NC(=O)[C@H](CC(=O)O)NC(=O)[C@H](CC(C)C)NC(=O)[C@@H](NC(=O)[C@@H](NC(=O)[C@H](C)NC(=O)[C@H](CC(C)C)NC(=O)[C@H](CCC(=O)O)NC(=O)[C@H](CO)NC(=O)[C@@H](NC(=O)[C@H](Cc1ccccc1)NC(=O)[C@@H](NC(=O)CNC(=O)[C@H](CCC(=O)O)NC(=O)C(C)(C)NC(=O)[C@@H](N)Cc1c[nH]cn1)[C@@H](C)O)[C@@H](C)O)[C@@H](C)O)[C@@H](C)CC)C(=O)N[C@@H](C)C(=O)N[C@@H](Cc1c[nH]c2ccccc12)C(=O)N[C@@H](CC(C)C)C(=O)N[C@@H](Cc1ccc(O)cc1)C(=O)N[C@@H](C)C(=O)N[C@@H](Cc1c[nH]cn1)C(=O)N[C@@H](CCCCN)C(=O)N[C@H](C(=O)N[C@H](C(=O)N[C@@H](CC(=O)O)C(=O)O)[C@@H](C)O)[C@@H](C)CC

Key:
[1] = target: human glucagon-like peptide 1 receptor (GLP-1R) (human, UniProt P43220); test: cell-based or functional assay
[2] = target: T1, human GLP-2 receptor (hGLP2-R); test: cell-based or functional assay

Binder | EC50 GLP-1 (nM); cAMP AlphaScreen [1] | EC50 GLP-2 (nM); cAMP AlphaScreen [2]
B1 | 0.016 nM | 0.083 nM
B2 | 0.006 nM | 0.026 nM
B3 | 0.005 nM | 0.038 nM
B4 | 0.055 nM | 0.076 nM
B5 | 0.011 nM | 0.085 nM
B6 | 0.005 nM | 0.05 nM
B7 | 0.021 nM | 0.049 nM
